Assay results published in the nanobody polyreactivity screen of Harvey et al. (2022).

Assay: yeast display, Sf9 membrane polyspecificity reagent, FACS + sequencing; frameworks hold sequencing errors
How it was run: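 Using colony PCR, genes from sorted yeast display clones were amplified, then sequenced on MiSeq at 2 × 250 and filtered by CDR length. The clones had been stained with 10% biotinylated, detergent-solubilized Sf9 membrane reagent for 1 hour at 4 °C and sorted by FACS into low and high (top ~1%) gates on anti-HA and streptavidin fluorescence. Polyreactivity labels come from the gate of origin.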

Sequence: QVQLVESGGGLVQAGGSLRLSCAASGRIFGRNTMGWYRQAPGKERELVASITFGGVSTYYADSVKGRFTISRDNAKNTVYLQMNSLKPEDTAVYYCAAVLINYEGYDSWGQGTQVTVSS
- polyreactivity (PSR sort gate): low polyreactivity

Sequence: QVQLVESGGGLVQAGGSLRLSCAASGRIFGRNTMGWYRQAPGKERELVAVISWRGGSTYYADSVKGRFTISRDNAKNTVYLQMNSLKPEDTAVYDCNPKYPFSRRGDYWGQGTQVTVSS
- polyreactivity (PSR sort gate): high polyreactivity

Sequence: QVQLVESGGGLVQAGGSLRLSCAASGRIFGRYAMGRYRQAPGKERELVAAISSTVGSTYYADSVKGRFTISRDNAKNTVDLQMNSLKPEDTAVYYCATVWYGSYYWATEYWGQGTQVTVSS
- polyreactivity (PSR sort gate): high polyreactivity

Sequence: QVQLVESGGGLVQAGGSLRLSCAASGRIFGRYAMGWYRQAPGKERELVAAITRSGGNTYYADSVKGRFTISRDNAKNTVYLQMNSLKPEDTAVYYCAVRQLDRRSPKYNYWGQGTQVTVSS
- polyreactivity (PSR sort gate): high polyreactivity

Sequence: QVQLVESGGGLVQAGGSLRLSCAASGRIFGRYAMGWYRQAPGKERELVATITYTGGSTYYADSVKGRFTISRDNAKNTVYLQMNSLKPEDTAVYSCNAVKPVSRTYDSSYYWGPGTQVTVSS
- polyreactivity (PSR sort gate): high polyreactivity

Sequence: QVQLVESGGGLVQAGGSLRLSCAASGRIFGRYTMGWYRQAPGKERELVAGITSSGGRTYYADSVKGRFTISRDNANNTVYLQMNSLKPEDTAVYYCAAKRWSVPSLYNYWGQGTQVTVSS
- polyreactivity (PSR sort gate): high polyreactivity

Sequence: QVQLVESGGGLVQAGGSLRLSCAASGRIFGTDVMGWYRQAPGKERELVARITGGGSTNYADSVKGRFTISRDNAKNTVYFQMNSLKPEDTAVYYCARDYGPYLSPENPAPMDYWGQGTQVTVSS
- polyreactivity (PSR sort gate): low polyreactivity

Sequence: QVQLVESGGGLVQAGGSLRLSCAASGRIFGTNALGWYRQAPGKERELVATITRGGGNTYYADSVKGRFTISRDNAKNTVYLQMNSLKPEDTAVYYCAAKFHRFAWYSHYDYWGQGTQVTVSS
- polyreactivity (PSR sort gate): low polyreactivity

Sequence: QVQLVESGGGLVQAGGSLRLSCAASGRIFGTNAMGWYRQAPGKERELVADITSGGSTNYADSVKGRFTISRDNAKNTVYLQMNSLKPEDTSVYYCAATWYGYYSRYDFYYWGQGTQVTVSS
- polyreactivity (PSR sort gate): low polyreactivity

Sequence: QVQLVESGGGLVQAGGSLRLSCAASGRIFGTNAMGWYRQAPGKESELVATITRGGGNTYYADSVKGRFTISRDNAKNTVYLQMISLKPEDTAVYYCGAKFHRFAWYSHYDYWGQGTQVTVSS
- polyreactivity (PSR sort gate): low polyreactivity

Sequence: QVQLVESGGGLVQAGGSLRLSCAASGRIFGTNAMGWYRQAPGKESELVATITRGGGNTYYADSVKGRFTISRDNAKNTVYLQMNSLKQEDTAVYYCNTRRLHGWLYGYEYWGQGTQVTVSS
- polyreactivity (PSR sort gate): low polyreactivity

Sequence: QVQLVESGGGLVQAGGSLRLSCAASGRIFGTYAMGWYRQAPGKERELVAAISSSGTSTYYADSVKGRFTISRDNAKNTVYLQMNSLKPEDTAVYYCAADTVSFSILYDYWGQGTQVTVSS
- polyreactivity (PSR sort gate): low polyreactivity

Sequence: QVQLVESGGGLVQAGGSLRLSCAASGRIFGTYAMGWYRQAPGKERELVASITDRGDSTYADSVKGRFTISRDNAKNTVYLQMNSLKPEDTAVYYCAVGYNSKLAVGMYYWGQGTQVTVSS
- polyreactivity (PSR sort gate): low polyreactivity

Sequence: QVQLVESGGGLVQAGGSLRLSCAASGRIFGTYTMGWYRQAPGKERELVAAISRNGGSTYYADSVKGRITISRDNAKNTVYLQMNSLKPEDTAVYYCNAERRDDRGFDYWGQGTQVTVSS
- polyreactivity (PSR sort gate): low polyreactivity

Sequence: QVQLVESGGGLVQAGGSLRLSCAASGRIFGVNAMGWYRQAPGKERELVAAISSGDSTYYADSVKGRFTISRDNAKNTVYLQMTCLKPEDTAVYYCAADVLGTTTTVGGFNYWGQGTQVTVSS
- polyreactivity (PSR sort gate): low polyreactivity

Sequence: QVQLVESGGGLVQAGGSLRLSCAASGRIFGVNAMGWYRQAPGKERELVAAISSNGGRTYYADSVKGRFTISRDNAKNTVYLQMNSLKPEDTAVYYCATRSSVGARHYYWGQGTQVTVSS
- polyreactivity (PSR sort gate): high polyreactivity

Sequence: QVQLVESGGGLVQAGGSLRLSCAASGRIFGVNAMGWYRQAPGKERELVAAISVSGDSTYYADSVKGRFTISRDNAKNTVYLQMNSLKPEDTAVYYCNAGFTFVPADLTDEYYWGQGTQVTVSS
- polyreactivity (PSR sort gate): low polyreactivity

Sequence: QVQLVESGGGLVQAGGSLRLSCAASGRIFGVNAMGWYRQAPGKERELVADISSGGSTYYADSVKGRFTISRDNAKNTVNLQMNSLTPEYTAVYYCAVDKSVYVSYSFYFEYDYWGQGTQVTVSS
- polyreactivity (PSR sort gate): low polyreactivity

Sequence: QVQLVESGGGLVQAGGSLRLSCAASGRIFGVYALGWYRQAPGKERELVAVISSGGSTKYADSVKGRFTISRDTAKNTVYLQMNSLKPEDTAVYYCAAADYRFWSRYDYWGQGTQVTVSS
- polyreactivity (PSR sort gate): low polyreactivity

Sequence: QVQLVESGGGLVQAGGSLRLSCAASGRIFGVYAMGWSRQAPGKERELVATITSGGSTSYADSVKGRFTISRDNAINTVFLQMNSLKPEDTAVYYCNAPYSFFWQQMNYWGQGTQVTVSS
- polyreactivity (PSR sort gate): low polyreactivity

Sequence: QVQLVESGGGLVQAGGSLRLSCAASGRIFGVYAMGWYRQAPGKERELVAAIYSGSSTYYADSVKGRFTISRDNAKNTVYLQMNSLKPEDTAVYYCNADTPYWVRWKYDYWGQGTQVTVSS
- polyreactivity (PSR sort gate): low polyreactivity

Sequence: QVQLVESGGGLVQAGGSLRLSCAASGRIFGVYAMGWYRQAPGKERELVADITRGGGSTYYADSVKGRFTISRDNAKNTVYLQMNSLKPEDTAVYYCAARYRFQRGGYYYWGQGTQVTVSS
- polyreactivity (PSR sort gate): high polyreactivity

Sequence: QVQLVESGGGLVQAGGSLRLSCAASGRIFGVYAMGWYRQAPGKERELVAGINGGDSTYYADSVKGRFTISRDNAKNTVYLQMNSLKPEDTAVYYCAAEADESGSNYDYWGQGTQVTVSS
- polyreactivity (PSR sort gate): low polyreactivity

Sequence: QVQLVESGGGLVQAGGSLRLSCAASGRIFGWNAMGWYRQAPGKERELVAGISSSGGSTYYADSVKGRFTISRDNAKNTVYLQMNSLKPEDTAVYYCARRHYVGYYGYYYWGQGTQVTVSS
- polyreactivity (PSR sort gate): high polyreactivity

Sequence: QVQLVESGGGLVQAGGSLRLSCAASGRIFGWYAMGWYRQAPGKERELVAAISRGGGSTYYADSVKGRFTISRDNAKNTVYLQMNSLKPEDTAVYYCARDGGSLSHYHVGTGKFGYWGQGTQVTVSS
- polyreactivity (PSR sort gate): low polyreactivity

Sequence: QVQLVESGGGLVQAGGSLRLSCAASGRIFGWYAMGWYRQAPGKERELVAAISSGGRTNYADSVKGRFTISRDNAKNTVYLQMNSLKPEDTAVYYCNARRTYLPYKFGYDYWGQGTQVTVSS
- polyreactivity (PSR sort gate): low polyreactivity

Sequence: QVQLVESGGGLVQAGGSLRLSCAASGRIFGYNAMGWYRQAPGKERDLVAAITTSGGSTYYADSVKGRFTISRDNAKNTVYLQMNSLKPEDTAVYYCARDSLQVFYPYASDDYWGQGTQVTVSS
- polyreactivity (PSR sort gate): low polyreactivity

Sequence: QVQLVESGGGLVQAGGSLRLSCAASGRIFGYNAMGWYRQAPGKERELVAAIRRRGGTTYYADSVKGRFTISRDNAKNTVYLQMNSLKPEDTAVYYCNTKYPGRGYYWGQGTQVTVSS
- polyreactivity (PSR sort gate): high polyreactivity

Sequence: QVQLVESGGGLVQAGGSLRLSCAASGRIFGYNAMGWYRQAPGKERELVAAISSTGNTYYADSVKGRFTISRDNAKNTVYLQMNSLKPEDTAVYYCARSWLYSQRRYDYWGQGTQVTVSS
- polyreactivity (PSR sort gate): low polyreactivity

Sequence: QVQLVESGGGLVQAGGSLRLSCAASGRIFGYNAMGWYRQAPGKERELVAAITNGGSTNYADSVKGRFTISRDNAKNTVYFHMNSLKPEDTAVYYCAVKWYPPGHDYWGQGTQVTVSS
- polyreactivity (PSR sort gate): low polyreactivity

Sequence: QVQLVESGGGLVQAGGSLRLSCAASGRIFGYYAMGGYRQAPGKERELVASISYSGASSYYADSVKGRFTISRDNAKNTVYLQMNSLKPEDTAVYYCNTDGDDFFHVIYDYWGQGTQVTVSS
- polyreactivity (PSR sort gate): low polyreactivity

Sequence: QVQLVESGGGLVQAGGSLRLSCAASGRIFGYYAMGWSRQAPGKERELVAAISSDGSTYYADSVKGRFTISRDNAENTVYLQMNSLKPEDTAVYYCAKEGRWDSYGYSAQPFYYWGQGTQVTVSS
- polyreactivity (PSR sort gate): low polyreactivity

Sequence: QVQLVESGGGLVQAGGSLRLSCAASGRIFGYYAMGWYIQAPGKERELVAGIDWSGGNTYYADSVKGRFTISRDNAKNTVYLQMNSLKPEDTAVYYCNTEGGRDTAWYDYWGQGTQVTVSS
- polyreactivity (PSR sort gate): low polyreactivity

Sequence: QVQLVESGGGLVQAGGSLRLSCAASGRIFGYYAMGWYRQAPGKERELVAAISSSGTSTYYADSVKGRFTISRDNAKNTVYLQMNSLKPEDTAVYYCAAYTYYEGDYWGQGTQVTVSS
- polyreactivity (PSR sort gate): low polyreactivity

Sequence: QVQLVESGGGLVQAGGSLRLSCAASGRIFGYYAMGWYRQAPGKERELVAAISYNVVSTNYADSVKGRFTISRDNPKNTVYLQMNSLKPEDTAVYYCAADYGRPYTAFDYWGQGTQVTVSS
- polyreactivity (PSR sort gate): low polyreactivity

Sequence: QVQLVESGGGLVQAGGSLRLSCAASGRIFGYYAMGWYRQAPGKERELVAAITINGGRTYYADSVKGRFTISRDNAKNTVYLQMNSLKPEDTAVYYCTATSRYNRLGYWGQGTLVTVSS
- polyreactivity (PSR sort gate): high polyreactivity

Sequence: QVQLVESGGGLVQAGGSLRLSCAASGRIFGYYAMGWYRQAPGKESELVATINSVGSTNYADSVKGRFTISRDNAKNTVYLQMNSLKPEDTAVYYCATDSAYTFFTYRLWRHGYWGQGTQVTVSS
- polyreactivity (PSR sort gate): low polyreactivity

Sequence: QVQLVESGGGLVQAGGSLRLSCAASGRIFGYYTMGSYRQAPGKEMELVATINWSGGSTYYADSVKGRFTISRDNAKNTVYLQMNSLKPEDTAVYYCADRPALWGRYRGYDYWGQGTQVTVSS
- polyreactivity (PSR sort gate): high polyreactivity

Sequence: QVQLVESGGGLVQAGGSLRLSCAASGRIFGYYVMGWYRQAPGKERELVAAISRSGGSTYYADSVKGRFTISRDNAKNTVYLEMNSLKPEDTAVYYCANYSPRYPNYDYWGQGTQVTVSS
- polyreactivity (PSR sort gate): high polyreactivity

Sequence: QVQLVESGGGLVQAGGSLRLSCAASGRIFHKYAMGWYRQAPGKERELVATIRSDDITYYADSVKGRFTISRDNAKNTVYLQMNSLKPEDTAVYYCAAYFWRYSSLYYYWGQGTQVTVSS
- polyreactivity (PSR sort gate): high polyreactivity

Sequence: QVQLVESGGGLVQAGGSLRLSCAASGRIFHQYAMGWYRQAPGKERELVAAITTRGTSTYYADSVKGRFTISRDNAKNTVYLQMNSLKPEDTAVYYCAAKFFGSVGHVAGDYWGQGTQVTVSS
- polyreactivity (PSR sort gate): high polyreactivity

Sequence: QVQLVESGGGLVQAGGSLRLSCAASGRIFHRYAMGWYRQAPGKERELVAAISYSTARTYYADSVKGRFTISRDNAKNTVYLQMNSLKPEDTAVYYCAARYQGGYDYWGQGTQVTVSS
- polyreactivity (PSR sort gate): high polyreactivity

Sequence: QVQLVESGGGLVQAGGSLRLSCAASGRIFHVYAMGWYRQAPGKERELVAAISSGDRTYYADSVKGRFIISRDNAKNTVYLQMNSLKPEDTAVYYCAATAQYYHYHLAKYDYWGQGTQVTVSS
- polyreactivity (PSR sort gate): low polyreactivity
